The values below come from the Immune Epitope Database (IEDB).

Holding throughout (conditions): source organism: Rickettsia akari str. Hartford
One assay concerns the target HLA-A*66:01. Kind of assay: IEDB peptide-MHC binding, purified MHC/competitive/fluorescence; filed as Kd, often an IC50 or EC50 that approximates it; ≥ and ≤ were set here for values at or beyond the usual limits of such assays.
Another assay has as its target HLA-A*02:12. The assay is described as above.
For another assay, the target named is HLA-A*29:02. Described as above.
The target in another assay is HLA-B*27:05. The description is as above.
For the next assay, the target named is HLA-B*08:01. The assay is described as above.
Another assay addresses HLA-B*53:01. The assay is described as above.
Another assay has as its target HLA-B*15:17. Described as above.
Another assay has as its target HLA-A*30:02. The description is as above.
In another assay the target is HLA-A*01:01. The description is as above.
For another assay, the target named is HLA-C*15:02. As to the kind of experiment: IEDB peptide-MHC binding, purified MHC/direct/fluorescence; filed as Kd, often an IC50 or EC50 that approximates it; ≥ and ≤ were set here for values at or beyond the usual limits of such assays.

Consider FTARIIIFS, for which the Kd – broadly, the equilibrium constant for the complex coming apart – was 3 µM with HLA-A*66:01; no less than 20 µM with HLA-A*02:12; no less than 20 µM with HLA-A*29:02; no less than 5 µM in the assay with HLA-B*27:05; no less than 5 µM in the assay with HLA-B*08:01; no less than 5 µM with HLA-B*53:01. Further, the Kd in the assay with HLA-B*15:17 was no less than 20 µM; with HLA-A*30:02, no less than 5 µM; with HLA-A*01:01, no less than 5 µM; in the assay with HLA-C*15:02, no less than 20 µM.
